Drawing on article PMC6698954 (Antibodies, 2018), this text covers Kd, koff and kon for six molecules.

To fix the notation:
B1: anti-WEEV E2/E3E2 single-domain antibody WB9 (VHH)
VHH: DVQLQASGGGLVQAGGSLRLSCATSGISVSNSDMGWYRQGPGKQRELVARNSRAGTTNYLDSVKGRFTISRDNAKNMVFLQMNSLKLEDTAVYYCNTNPINRWNIWGQGAQVTVSS
notes: also called Bt-WB9
B2: anti-WEEV E2/E3E2 single-domain antibody WH11 (VHH)
VHH: EVQLQASGGGLVQAGGSLRLTCVASGLTFVNYALDWYRQAPGKERELVAGMWSDGVAYYGDFVKGRFTMSRDNAKNMVYLQMNSLEPEDTAVYSCAARSRPTTQYDYWGQGTQVTVSS
notes: also called Bt-WH11
B3: anti-WEEV E2/E3E2 single-domain antibody WD11f (VHH)
VHH: EVQLQASGGGLVQSGGSLRLSCAGSGGTESSYRMAWFRQAPGTERVFVARVSDGGGSILYADSAKGRFTISRDNGKNTIHLQMFSLKPEDTAVYFCAAAFSWMPPSTVAADYEYWGQGTQVTVSS
notes: also called Bt-WD11f
B4: anti-WEEV E2/E3E2 single-domain antibody WC10 (VHH)
VHH: DVQLQASGGGLVEAGGSLRLSCTTSGISVRNSDMGWYRQGPGKQRELIARSSRGGATNYLDSVTGRFTISRDNIKNTVFLQMNSLKPEDTAVYYCNTNPINHWNVWGQGTQVTVSS
notes: also called Bt-WC10
B5: anti-WEEV E2/E3E2 single-domain antibody WF4 (VHH)
VHH: DVQLQASGGGLVQAGGSLRLSCAVSDNTTSLNGMGYYRGPPGKQREFVAYARNNGAPKYADSVMGRFTISVDNSKATVYLQMNNLGPEDTALYYCYAPDRWHTYWAGGTQVTVSS
notes: also called Bt-WF4
B6: anti-WEEV E2/E3E2 single-domain antibody WE10 (VHH)
VHH: DVQLQASGGGLVQAGGSLRLSCVASGLTFVNYAIDWYRQAPGKEREVVAGMWNDGVAYYGDFVKGRFTIARDNAKNTVYLQMNNLKPEDTAVYFCGARSRPNLQYDYWGQGTQVTVSS
notes: also called Bt-WE10

This assay deals with T1, Recombinant WEEV glycoprotein (E2/E3E2) (Western equine encephalitis virus, …, UniProt P13897).
T1 construct: source: bought: IBT Bioservices
Briefly: SPR; ProteOn XPR36; […] (20 µg/mL in 10 mM sodium acetate pH 5.0); […]. The following applies: both partners purified. Background: SPR reads the build-up and loss of mass on a sensor chip optically.
As a reminder, the Kd is the free concentration of one partner at which half of the binding sites on the other are occupied at equilibrium, for simple one-to-one binding. Usually koff stands for the first-order rate constant of dissociation. What is called kon is a measure of how fast the partners come together. Regarding B1, the Kd was determined as 2.6 nM, the koff stood at 0.0029 s⁻¹ and the kon worked out at 1.1e+06 M⁻¹ s⁻¹.
On the same counts, the results for B2 are 22 nM, 0.0033 s⁻¹ and 150000 M⁻¹ s⁻¹.
The corresponding values for B3 are 7.2 nM, 0.53 s⁻¹ and 7.3e+07 M⁻¹ s⁻¹.
Consider B4, for which the Kd was 8.5 nM, the koff stood at 0.85 s⁻¹ and the kon worked out at 1e+08 M⁻¹ s⁻¹.
The corresponding values for B5 are 24 nM, 0.0015 s⁻¹ and 63000 M⁻¹ s⁻¹.
The corresponding values for B6 are 12 nM, 0.00083 s⁻¹ and 70000 M⁻¹ s⁻¹.
